B1: LINE1-full (parent)
chain: UACGUAGGUGGUUUUCCCCUGAUAGUGCUAAGGGGGCCUGGAAGUUUGGACUGGGCAGAGCUCAACACAGCGUGGCAAAGUGGCUGUGGCUAGACUGCCUCUCUGGAUUCCUCGUCACUCAGCAGGGCAUCUCUGAGAGAAAUGCC

Variants of: B1
Test: self-cleavage, relative activity (ratio to wild type); higher = more cleavage; in vitro, sequencing; the parent is a self-cleaving ribozyme

| Variant | self-cleavage |
| --- | --- |
| A69U A129U | 0.06 |
| A69U A129G | 0.07 |
| G72A A94U | 0.06 |
| G72A G122A | 1.6 |
| G70A A141G | 0.17 |
| C68U U143C | 0.22 |
| U73A C95G | 0.06 |
| A69U U102C | 0.06 |
| A69C A121U | 0.04 |
| A69C A121G | 0.11 |
| G72A U143A | 1.85 |
| U73A C84U | 0.16 |
| G72A A77U | 1.44 |
| U73A C118U | 1.25 |
| G72A A117U | 1.54 |
| A69G C111U | 0.47 |
| C68G U134G | 0.04 |
| A69U A77U | 0.06 |
| A69U A77G | 0.07 |
| A69C A78G | 0.1 |
| G70A A94G | 0.07 |
| A69G G106A | 0.61 |
| G70A U100A | 0.05 |
| C71U C111U | 0.82 |

| Variant | self-cleavage |
| --- | --- |
| C71A C145U | 0.18 |
| C71U C120U | 2.76 |
| C68U U96C | 0.04 |
| U73C A79U | 1.65 |
| A69G A136C | 0.49 |
| G72U A121U | 1.08 |
| G72U A121G | 1.32 |
| C71U C99G | 0.12 |
| A69G U81C | 0.54 |
| A69G U81A | 0.38 |
| A69G A92U | 0.13 |
| A69G A92G | 0.23 |
| G70C C90A | 0.02 |
| A69C C76U | 0.08 |
| A67U A129G | 0.08 |
| G72U A129G | 1.08 |
| A69U A138G | 0.07 |
| G70U U112C | 0.06 |
| G70U U112A | 0.05 |
| A67U A121U | 0.12 |
| A69G U108C | 0.68 |
| C71A A129G | 0.23 |
| C68U G135A | 0.22 |
| G72A U102C | 0.46 |

| Variant | self-cleavage |
| --- | --- |
| U73C A94U | 0.69 |
| U73C A94C | 0.32 |
| U73A A117U | 1.81 |
| A69G U143A | 0.31 |
| A69G U143C | 0.5 |
| G72A U115C | 0.9 |
| C71U A121U | 0.93 |
| A67U U112C | 0.09 |
| A69G G144A | 1.02 |
| A69G G105A | 0.62 |
| C71A G83U | 0.58 |
| U73A G125A | 1.92 |
| A69G C123U | 0.45 |
| A67U A69G | 0.03 |
| C71U C90A | 0.04 |
| A69U U130G | 0.09 |
| A69G A129G | 0.58 |
| G70U U91C | 0.03 |
| A69U A94G | 0.02 |
| G72A U85C | 0.08 |
| G72U A142G | 0 |
| A69C C131A | 0.09 |
| G72A G137A | 0.46 |
| A69C U81C | 0 |

| Variant | self-cleavage |
| --- | --- |
| A67G U85G | 0.12 |
| G70A G80A | 0.48 |
| A67U U108C | 0.29 |
| A69G U85A | 0.09 |
| A67U A107U | 0.04 |
| A67U G83A | 0.03 |
| G72A G88A | 0.03 |
| U73A G127A | 1.58 |
| A67G U132A | 0.64 |
| A67U C110U | 0.14 |
| C71G A140U | 0.53 |
| G72A C90G | 0.03 |
| A69G C99G | 0 |
| A69G G125A | 0.72 |
| A69G A124U | 0 |
| U73A A77G | 2.29 |
| U73A G137A | 1.7 |
| C71G U81A | 0.28 |
| C71G U81C | 0.27 |
| A69G A107U | 0 |
| A67U A136C | 0.03 |
| A69U A142G | 0.06 |
| C71U A78G | 0.41 |
| A69U U109C | 0.06 |

| Variant | self-cleavage |
| --- | --- |
| A69U U109G | 0 |
| G70A A136U | 0.16 |
| U73A C113U | 1.41 |
| C71U U143C | 0.64 |
| A69U G126A | 0.05 |
| A69U U85C | 0 |
| C71U A92G | 0.06 |
| U73A U115A | 1.66 |
| G72A U104A | 0.93 |
| C71U C76U | 1.15 |
| A69C A141G | 0.07 |
| U73A C101U | 2.61 |
| U73A U143C | 1.4 |
| U73A U143A | 1.75 |
| C68U A69G | 0.11 |
| A69U G80U | 0.03 |
| A69U G80A | 0.3 |
| A69G G93U | 0.01 |
| A69G A78G | 0.25 |
| A67U G72A | 0.13 |
| C71A G122A | 0.12 |
| G72U U115C | 1.31 |
| U73A A79U | 2.48 |
| G72U U73C | 0.9 |

| Variant | self-cleavage |
| --- | --- |
| U73A A78U | 1.94 |
| U73A A78C | 2.67 |
| U73A A78G | 0.34 |
| C68A | 0.04 |
| C68G | 0.05 |
| C68U | 0.13 |
| U73A C111U | 1.54 |
| A67U U132C | 0.16 |
| A67U U132A | 0.11 |
| G72A U87C | 0.25 |
| A69U C95A | 0.02 |
| A69G C146A | 0.77 |
| U73A G144A | 1.4 |
| A69U A107G | 0.08 |
| A69U A107U | 0.04 |
| U73A A124U | 1.4 |
| C71A C128U | 0.18 |
| G72U | 0.9 |
| G72A | 1.3 |
| G72C | 1.18 |
| C68A C133A | 0.02 |
| U73A G105A | 2.29 |
| C68U A92G | 0.05 |
| A67G U109A | 0.43 |

| Variant | self-cleavage |
| --- | --- |
| G70A U115C | 0.16 |
| C71U G75A | 0.59 |
| A69U A140G | 0.04 |
| G72A A78U | 1.81 |
| G72A A78G | 1.14 |
| A67U C90G | 0.04 |
| A69U U104C | 0.05 |
| A67U U81C | 0.13 |
| U73A A140U | 1.88 |
| G70C | 0.15 |
| G70A | 0.1 |
| G70U | 0.05 |
| A67U C131U | 0.08 |
| C68U A136G | 0.36 |
| G72A U130C | 1.85 |
| C71U A117U | 0.98 |
| U73A A141G | 1.74 |
| G72A U134A | 1.15 |
| A67U G88A | 0.03 |
| A69G C145A | 0.71 |
| G70U G97A | 0.01 |
| A67U C99A | 0 |
| U73A G93U | 0.03 |

Source: the RNAGym collection of RNA variant scans (doi:10.7554/elife.90254)
